Literature values as cited in PMC6802610.

How the values were obtained:
GDI (Homo sapiens) = GDI (Homo sapiens) (UniProt P31150)
Rab1 (Homo sapiens) = Rab1 (Homo sapiens) (UniProt P62820)
Rab1 (Homo sapiens), sequence (P62820 2-205): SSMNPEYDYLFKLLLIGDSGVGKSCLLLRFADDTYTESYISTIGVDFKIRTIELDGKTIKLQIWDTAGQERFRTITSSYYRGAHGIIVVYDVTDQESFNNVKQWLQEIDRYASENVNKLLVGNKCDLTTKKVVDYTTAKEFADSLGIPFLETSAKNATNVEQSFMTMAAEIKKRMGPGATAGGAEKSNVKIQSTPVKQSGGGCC

SidM/DrrA, sequence (Q5ZSQ3 whole entry): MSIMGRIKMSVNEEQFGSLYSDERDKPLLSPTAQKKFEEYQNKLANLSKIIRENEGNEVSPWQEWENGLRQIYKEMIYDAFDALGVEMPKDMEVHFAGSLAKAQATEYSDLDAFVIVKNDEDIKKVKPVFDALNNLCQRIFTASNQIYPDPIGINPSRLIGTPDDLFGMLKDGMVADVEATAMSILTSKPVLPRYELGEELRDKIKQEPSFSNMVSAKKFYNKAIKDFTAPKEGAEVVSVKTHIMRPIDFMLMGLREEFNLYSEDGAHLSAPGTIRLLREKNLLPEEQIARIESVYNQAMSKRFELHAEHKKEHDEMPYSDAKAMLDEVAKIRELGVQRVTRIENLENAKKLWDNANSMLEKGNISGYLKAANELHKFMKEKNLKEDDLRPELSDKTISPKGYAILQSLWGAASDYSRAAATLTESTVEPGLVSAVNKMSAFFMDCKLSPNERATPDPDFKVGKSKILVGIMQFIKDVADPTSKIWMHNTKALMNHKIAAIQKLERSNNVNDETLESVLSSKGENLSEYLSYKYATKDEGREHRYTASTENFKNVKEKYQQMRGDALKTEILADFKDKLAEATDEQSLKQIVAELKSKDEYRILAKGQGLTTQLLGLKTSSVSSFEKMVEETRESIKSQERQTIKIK
GDI (Homo sapiens), sequence (P31150 whole entry): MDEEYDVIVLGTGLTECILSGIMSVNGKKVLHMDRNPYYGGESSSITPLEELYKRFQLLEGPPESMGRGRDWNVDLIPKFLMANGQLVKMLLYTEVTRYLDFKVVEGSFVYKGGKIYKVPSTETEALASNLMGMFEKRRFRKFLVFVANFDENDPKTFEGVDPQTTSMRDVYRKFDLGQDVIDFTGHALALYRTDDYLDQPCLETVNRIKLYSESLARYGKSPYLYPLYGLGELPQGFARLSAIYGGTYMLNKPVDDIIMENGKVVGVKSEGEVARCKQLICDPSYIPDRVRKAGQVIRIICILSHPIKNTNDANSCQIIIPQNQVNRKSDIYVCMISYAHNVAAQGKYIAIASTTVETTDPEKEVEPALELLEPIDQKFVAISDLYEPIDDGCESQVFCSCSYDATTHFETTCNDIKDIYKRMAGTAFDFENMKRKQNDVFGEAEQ
Rab1, sequence (P62820 2-205): as the sequence (P62820 2-205) above

Substance	Kd (GDI (Homo sapiens))	Kd (Rab1 (Homo sapiens))
Rab1 (from UniProt P62820)	20 nM	–
SidM/DrrA (from UniProt Q5ZSQ3)	–	84 nM
